In US20100297120A1:

Target: epidermal growth factor receptor (EGFR) on EGFR positive U87 cells (UniProt P00533)
Test: FACS, saturation binding to EGFR on cells

Half saturation [nM]	Bmax (RFU)	Substance
1.8		Anti-EGFR-Angiopep-2 conjugate (EGFR antibody monoclonal 528 cross-linked to Angiopep-2 with SATA)
1.7	23.6	EGFR antibody (monoclonal 528 available from ATCC)
